# Source: patent US20110135573A1 (DYAX, published 2011)
# Residue numbers refer to the chain shown, from its start.
# T1: MMP-7 (Biomol SE-181) (UniProt P09237 95-267)
# T1 sequence (looked up): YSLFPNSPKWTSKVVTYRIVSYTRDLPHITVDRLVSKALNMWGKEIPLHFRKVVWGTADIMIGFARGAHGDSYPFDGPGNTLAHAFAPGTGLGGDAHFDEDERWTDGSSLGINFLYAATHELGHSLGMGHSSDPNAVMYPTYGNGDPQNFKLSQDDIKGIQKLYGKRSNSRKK
# T2: MMP-26 (Dyax prep #020209) (UniProt Q9NRE1 90-261, limits assumed)
# T2 sequence (looked up): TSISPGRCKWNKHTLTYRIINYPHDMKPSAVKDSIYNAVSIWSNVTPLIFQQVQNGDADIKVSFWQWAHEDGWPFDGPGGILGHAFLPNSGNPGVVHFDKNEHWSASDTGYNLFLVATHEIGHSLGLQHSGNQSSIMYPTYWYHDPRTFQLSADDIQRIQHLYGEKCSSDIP
# T3: MMP-1 (Biomol SE-180) (UniProt P03956 100-269, limits assumed)
# T3 sequence (looked up): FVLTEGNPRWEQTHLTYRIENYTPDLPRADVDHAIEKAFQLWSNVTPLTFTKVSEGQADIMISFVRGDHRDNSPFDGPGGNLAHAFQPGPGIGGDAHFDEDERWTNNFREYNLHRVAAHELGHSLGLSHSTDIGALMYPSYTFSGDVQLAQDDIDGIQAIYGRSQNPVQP
# B1: M0275-D03 (Fab, V domains shown)
# VH: EVQLLESGGGLVQPGGSLRLSCAASGFTFSQYDMWWVRQAPGKGLEWVSVIYPSGTTFYADSVKGRFTISRDNSKNTLYLQMNSLRAEDTAVYYCAKDRAYGDYVGWNGFDYWGQGTLVTVSS
# VL: DIQMTQSPATLSLSPGERATLSCRASQSISSFLAWYQQKPGQAPRLLIYDASYRATGIPARFSGSGSGTDFTLTISSLEPEDYAVYYCQQRGNWPITFGQGTRLEIK
# notes: sFab; variable domains only; also called M275-D03
# B2: M0307-F04 (Fab, V domains shown)
# VH: EVQLLESGGGLVQPGGSLRLSCAASGFTFSLYDMWWVRQAPGKGLEWVSVIYSSGGYTGYADSVKGRFTISRDNSKNTLYLQMNSLRAEDTAVYYCAKDRAYGDYVGWNGFDYWGQGTLVTVSS
# VL: B1 VL
# notes: sFab; variable domains only; also called M307-F04
# B3: M0276-F11 (Fab, V domains shown)
# VH: B2 VH with L31W, Y57P, G59F
# VL: B1 VL
# notes: sFab; variable domains only; also called M276-F11
# B4: M0256-D11 (Fab, V domains shown)
# VH: B2 VH with L31H, Y57P, G59F
# VL: B1 VL
# notes: sFab; variable domains only; also called M256-D11; 539A-M0256-D11
# B5: M0274-G08 (Fab, V domains shown)
# VH: B2 VH with L31V, S53P, Y57A, G59Y
# VL: B1 VL
# notes: sFab; variable domains only; also called M274-G08
# B6: X0106-E04 (antibody, V domains shown)
# VH: B1 VH
# VL: B1 VL with D1E, Q3V, M4L, Y83F
# notes: Produced and tested as IgG1; germlined, optimized version of M0275-D03; also called X0106-E4
# B7: X0106-A01 (antibody, V domains shown)
# VH: B2 VH with L31H, Y57P, G59F
# VL: B1 VL with D1E, Q3V, M4L, Y83F
# notes: Produced and tested as IgG1; germlined, optimized version of M0256-D11; also called X106-A01; X106-A01 IgG
# B8: M0279-A03 (Fab, V domains shown)
# VH: B2 VH with L31Q, D33P, V50Y, Y52V, S53P, Y57R, G59Y
# VL: DIQMTQSPATLSVSPGERVTLSCKASHSISRNLAWYQQKPGQAPRLLIFGASTRATGIPARFSGSGSGTEFTLTISSLEAEDFAVYYCQQRRNWPVTFGPGTKLDFK
# notes: sFab; variable domains only; also called M279-A03; M279-A03 sFab
# B9: M0279-B02 (Fab, V domains shown)
# VH: B2 VH with L31Q, D33P, V50Y, Y52V, S53P, Y57R, G59Y
# VL: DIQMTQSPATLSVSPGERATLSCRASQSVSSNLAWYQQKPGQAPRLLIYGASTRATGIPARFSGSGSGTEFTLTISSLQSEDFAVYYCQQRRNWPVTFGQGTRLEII
# notes: sFab; variable domains only; also called M279-B02
# B10: M0288-C08 (Fab, V domains shown)
# VH: B2 VH with L31Q, D33P, V50Y, Y52V, S53P, Y57R, G59Y
# VL: DIQMTQSPGTLSVSPGERVTLSCRASQSVSSYLAWYQQKPGQAPRLLIYGASTRVTGIPARFSGSGSGTEFTLTISSLQSEDFAVYYCQQRSSWPITFGQGTRLEIK
# notes: sFab; variable domains only; also called M288-C08
# Target: T4, human MMP-2 (Biomol #SE-237) (human, UniProt P08253 110-452, limits assumed)
# T4 construct: also called hMMP-2
# Test: Ki,app, enzyme inhibition assay (fluorogenic peptide substrate), small-scale sFab
# Protocol: (§1) Target enzymes were incubated with inhibitor for two hours at 30° C. in reaction buffer (50 mM Tris-HCl pH 7.5, 150 mM NaCl, 5 mM CaCl₂, 0.05% Brij-35) in a total volume of 90 μL using a white 96 well plate (Costar). […] An anti-MMP-2 antibody (R&D Systems polyclonal IgG #AF902) was similarly tested with 200 nM as the highest inhibitor concentration. Reactions were initiated by the addition of 10 μL of a 10× concentrated stock of substrate, Mca-Lys-Pro-Leu-Gly-Leu-Dap(Dnp)-Ala-Arg-NH2, (Bachem M-2350), at final concentration of 10 μM and monitored at 30° C. in a Molecular Devices' Gemini fluorescence plate reader. The excitation and emission wavelengths were set at 328 nm and 393 nm, respectively. Kinetic data were acquired by the increase in fluorescence, and initial rates for each condition were plotted against the total inhibitor concentration. Reactions were performed in duplicates and all data replicates were plotted in a single graph and fit to the following equation¹: […]
# T4 sequence (P08253 110-452 limits assumed): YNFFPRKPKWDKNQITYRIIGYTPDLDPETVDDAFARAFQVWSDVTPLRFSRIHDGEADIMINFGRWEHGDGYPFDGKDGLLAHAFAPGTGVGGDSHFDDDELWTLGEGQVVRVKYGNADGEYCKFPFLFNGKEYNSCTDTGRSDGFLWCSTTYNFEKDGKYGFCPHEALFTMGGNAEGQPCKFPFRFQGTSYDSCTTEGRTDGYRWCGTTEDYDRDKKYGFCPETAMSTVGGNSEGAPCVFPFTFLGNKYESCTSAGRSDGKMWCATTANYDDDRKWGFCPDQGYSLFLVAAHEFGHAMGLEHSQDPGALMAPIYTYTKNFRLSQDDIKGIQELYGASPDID
row,Binder,Ki [nM]
1,B1,0.7
2,B2,0.1
3,B3,0.2

# Target: T5, Human MMP-9 catalytic domain (BIOMOL, SE-244) (human, UniProt P14780 107-457, limits assumed)
# T5 construct: domain: catalytic domain; also called Cat-huMMP-9; cat-huMMP-9
# Test: as above
# Protocol: as §1
# T5 sequence (P14780 107-457 limits assumed): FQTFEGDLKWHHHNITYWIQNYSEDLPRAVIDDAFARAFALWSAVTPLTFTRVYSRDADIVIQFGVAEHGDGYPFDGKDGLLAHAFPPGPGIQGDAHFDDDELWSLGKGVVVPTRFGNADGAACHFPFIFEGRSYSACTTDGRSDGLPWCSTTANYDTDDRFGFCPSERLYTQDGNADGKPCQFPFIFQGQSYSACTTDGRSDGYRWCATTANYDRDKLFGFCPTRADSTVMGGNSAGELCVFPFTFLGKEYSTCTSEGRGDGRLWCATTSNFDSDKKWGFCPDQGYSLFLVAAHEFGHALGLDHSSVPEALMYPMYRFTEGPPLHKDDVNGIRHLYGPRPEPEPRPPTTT
row,Binder,Ki [nM]
1,B1,0.6
2,B4,0.3
3,B5,0.6
4,B2,0.1
5,B3,0.2

# Target: T6, Mouse MMP-9 (R&D, 909-MM), APMA-activated (mouse, UniProt P41245 108-730, limits assumed)
# T6 construct: also called mMMP-9; mouse MMP-9 (R&D Systems #909-MM-010)
# Test: as above
# Protocol: as §1
# T6 sequence (P41245 108-730 limits assumed): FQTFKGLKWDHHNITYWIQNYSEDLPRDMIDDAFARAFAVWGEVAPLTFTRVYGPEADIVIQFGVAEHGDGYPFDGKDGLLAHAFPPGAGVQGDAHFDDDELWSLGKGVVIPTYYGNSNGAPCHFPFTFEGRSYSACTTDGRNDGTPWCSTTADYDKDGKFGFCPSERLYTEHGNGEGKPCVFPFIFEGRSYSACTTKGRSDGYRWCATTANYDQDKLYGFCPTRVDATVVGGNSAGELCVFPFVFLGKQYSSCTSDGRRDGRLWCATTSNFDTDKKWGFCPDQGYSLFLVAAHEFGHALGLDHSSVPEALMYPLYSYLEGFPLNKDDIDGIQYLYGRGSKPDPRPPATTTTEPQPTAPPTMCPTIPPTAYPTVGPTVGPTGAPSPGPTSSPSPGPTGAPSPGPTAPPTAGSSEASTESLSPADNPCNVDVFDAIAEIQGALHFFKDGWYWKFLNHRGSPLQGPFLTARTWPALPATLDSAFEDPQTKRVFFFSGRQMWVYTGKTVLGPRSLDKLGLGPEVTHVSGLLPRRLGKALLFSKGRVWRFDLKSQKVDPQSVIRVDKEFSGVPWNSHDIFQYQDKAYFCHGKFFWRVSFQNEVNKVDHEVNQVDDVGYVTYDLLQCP
row,Binder,Ki [nM]
1,B1,1.2
2,B2,0.1
3,B3,0.4

# Target: T4, human MMP-2 (Biomol #SE-237)
# Test: Ki,app, enzyme inhibition assay (fluorogenic peptide substrate), medium-scale sFab
# Protocol: as §1
row,Binder,Ki [nM]
1,B1,0.5
2,B4,0.5
3,B5,0.4
4,B2,0.4
5,B3,0.4

# Target: T5, Human MMP-9 catalytic domain (BIOMOL, …)
# Test: as above
# Protocol: as §1
row,Binder,Ki [nM]
1,B1,0.6
2,B4,0.3
3,B5,0.5
4,B2,0.8
5,B3,0.4

# Target: T6, Mouse MMP-9 (R&D, 909-MM), …
# Test: as above
# Protocol: as §1
row,Binder,Ki [nM]
1,B1,1
2,B4,0.6
3,B5,0.6
4,B2,0.4
5,B3,0.6

# Target: T4, human MMP-2 (Biomol #SE-237)
# Test: Ki,app, enzyme inhibition assay (fluorogenic peptide substrate), IgG
row,Binder,Ki [nM]
1,B6,0.38
2,B7,0.34

# Target: T5, Human MMP-9 catalytic domain (BIOMOL, …)
# Test: as above
row,Binder,Ki [nM]
1,B6,0.13
2,B7,0.1

# Target: T6, Mouse MMP-9 (R&D, 909-MM), …
# Test: as above
row,Binder,Ki [nM]
1,B6,0.23
2,B7,0.25

# Target: T5, Human MMP-9 catalytic domain (BIOMOL, …)
# Test: Ki,app, enzyme inhibition assay (fluorogenic peptide substrate), small-scale sFab
# Remark: another data set of the same source
row,Binder,Ki [nM]
1,B8,2.2
2,B9,2.6
3,B10,2

# Target: MMP-15 (Calbiochem #475938) (UniProt P51511 132-304, limits assumed)
# Test: cell-based or functional assay
# Sequence of MMP-15 (Calbiochem #475938) (P51511 132-304 limits assumed): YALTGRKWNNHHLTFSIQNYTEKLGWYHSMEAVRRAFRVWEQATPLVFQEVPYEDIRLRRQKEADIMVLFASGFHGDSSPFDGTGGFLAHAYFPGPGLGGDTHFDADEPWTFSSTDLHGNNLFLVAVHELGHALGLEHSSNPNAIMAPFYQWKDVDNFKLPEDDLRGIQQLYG
row,Binder,IC50 (enzyme inhibition) [nM]
1,B8,> 500
2,B9,> 1000
3,B7,> 1000

# Target: MMP-12 (Biomol SE-138) (UniProt P39900 106-263, limits assumed)
# Test: cell-based or functional assay
# Sequence of MMP-12 (Biomol SE-138) (P39900 106-263 limits assumed): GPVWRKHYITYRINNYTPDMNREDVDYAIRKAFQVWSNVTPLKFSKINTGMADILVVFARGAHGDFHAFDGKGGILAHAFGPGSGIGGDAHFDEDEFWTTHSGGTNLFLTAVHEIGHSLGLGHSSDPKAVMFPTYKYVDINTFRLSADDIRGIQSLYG
row,Binder,IC50 (enzyme inhibition) [nM]
1,B8,> 500
2,B9,> 1000
3,B7,> 1000

# Target: MMP-14 (Biomol SE-259) (UniProt P50281 112-284, limits assumed)
# Test: cell-based or functional assay
row,Binder,IC50 (enzyme inhibition) [nM]
1,B8,> 500
2,B9,> 1000
3,B7,> 1000

# Target: MMP-16 (Calbiochem #475939) (UniProt P51512 120-292, limits assumed)
# Test: cell-based or functional assay
# Sequence of MMP-16 (Calbiochem #475939) (P51512 120-292 limits assumed): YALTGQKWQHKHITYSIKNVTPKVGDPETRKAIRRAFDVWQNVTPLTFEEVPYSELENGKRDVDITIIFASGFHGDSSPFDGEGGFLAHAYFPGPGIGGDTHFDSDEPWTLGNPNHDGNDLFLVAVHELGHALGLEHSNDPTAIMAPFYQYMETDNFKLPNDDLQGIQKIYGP
row,Binder,IC50 (enzyme inhibition) [nM]
1,B8,> 500
2,B9,> 1000
3,B7,> 1000

# Target: T1, MMP-7 (Biomol SE-181)
# Test: cell-based or functional assay
row,Binder,IC50 (enzyme inhibition) [nM]
1,B8,> 500
2,B9,> 1000
3,B7,900

# Target: MMP-13 (Biomol SE-246) (UniProt P45452 104-274)
# Test: cell-based or functional assay
row,Binder,IC50 (enzyme inhibition) [nM]
1,B8,> 500
2,B9,> 1000
3,B7,> 1000

# Target: T2, MMP-26 (Dyax prep #020209)
# Test: cell-based or functional assay
row,Binder,IC50 (enzyme inhibition) [nM]
1,B9,> 1000
2,B7,12

# Target: MMP-10 (Biomol SE-329) (UniProt P09238 99-265, limits assumed)
# Test: cell-based or functional assay
# Sequence of MMP-10 (Biomol SE-329) (P09238 99-265 limits assumed): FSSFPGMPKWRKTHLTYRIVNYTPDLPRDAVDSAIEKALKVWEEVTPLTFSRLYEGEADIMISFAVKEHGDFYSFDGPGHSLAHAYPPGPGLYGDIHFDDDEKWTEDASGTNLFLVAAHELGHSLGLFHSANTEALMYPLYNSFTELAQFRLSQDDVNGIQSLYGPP
row,Binder,IC50 (enzyme inhibition) [nM]
1,B8,> 500
2,B9,> 1000
3,B7,> 1000

# Target: T3, MMP-1 (Biomol SE-180)
# Test: cell-based or functional assay
row,Binder,IC50 (enzyme inhibition) [nM]
1,B8,> 500
2,B9,> 1000
3,B7,> 1000

# Target: MMP-3 (R&D Systems #513-MP) (UniProt P08254 18-477, limits assumed)
# Test: cell-based or functional assay
# Sequence of MMP-3 (R&D Systems #513-MP) (P08254 18-477 limits assumed): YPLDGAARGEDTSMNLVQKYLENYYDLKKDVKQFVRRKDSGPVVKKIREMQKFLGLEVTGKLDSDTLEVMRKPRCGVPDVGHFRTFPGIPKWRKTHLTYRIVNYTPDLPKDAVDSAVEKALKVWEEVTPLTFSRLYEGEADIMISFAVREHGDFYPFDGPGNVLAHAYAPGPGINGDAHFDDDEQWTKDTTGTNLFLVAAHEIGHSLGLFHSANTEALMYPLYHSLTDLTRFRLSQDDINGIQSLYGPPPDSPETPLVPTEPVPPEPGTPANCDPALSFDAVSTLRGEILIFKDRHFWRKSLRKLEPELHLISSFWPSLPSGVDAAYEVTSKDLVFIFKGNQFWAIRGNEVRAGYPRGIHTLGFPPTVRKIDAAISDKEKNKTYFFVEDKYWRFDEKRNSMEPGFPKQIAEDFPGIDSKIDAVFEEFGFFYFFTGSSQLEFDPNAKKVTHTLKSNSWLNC
row,Binder,IC50 (enzyme inhibition) [nM]
1,B8,> 500
2,B9,> 1000
3,B7,> 1000

# Target: MMP-8 (Biomol SE-255) (UniProt P22894 100-262, limits assumed)
# Test: cell-based or functional assay
# Sequence of MMP-8 (Biomol SE-255) (P22894 100-262 limits assumed): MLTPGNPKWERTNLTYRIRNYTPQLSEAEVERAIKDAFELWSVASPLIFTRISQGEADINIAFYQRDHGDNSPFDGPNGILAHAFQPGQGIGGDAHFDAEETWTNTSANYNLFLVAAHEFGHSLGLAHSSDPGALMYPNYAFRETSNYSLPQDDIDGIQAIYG
row,Binder,IC50 (enzyme inhibition) [nM]
1,B8,> 500
2,B9,> 1000
3,B7,> 1000

# Target: TACE (R&D Systems) (UniProt P78536 215-671, limits assumed)
# Test: cell-based or functional assay
# Sequence of TACE (R&D Systems) (P78536 215-671 limits assumed): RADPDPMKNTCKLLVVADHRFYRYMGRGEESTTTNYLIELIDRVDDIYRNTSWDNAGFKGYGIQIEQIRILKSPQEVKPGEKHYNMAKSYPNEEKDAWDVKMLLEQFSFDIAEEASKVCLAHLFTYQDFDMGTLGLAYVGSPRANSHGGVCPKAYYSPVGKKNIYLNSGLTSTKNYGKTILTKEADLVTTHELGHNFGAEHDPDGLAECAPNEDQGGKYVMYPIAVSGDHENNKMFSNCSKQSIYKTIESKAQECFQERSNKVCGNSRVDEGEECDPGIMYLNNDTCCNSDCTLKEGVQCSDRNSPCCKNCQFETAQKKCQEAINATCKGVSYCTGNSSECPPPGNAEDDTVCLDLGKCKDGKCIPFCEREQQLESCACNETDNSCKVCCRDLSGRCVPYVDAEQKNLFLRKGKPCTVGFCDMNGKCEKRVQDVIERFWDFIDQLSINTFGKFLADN
row,Binder,IC50 (enzyme inhibition) [nM]
1,B8,> 500
2,B9,> 1000
3,B7,> 1000

# Target: T4, human MMP-2 (Biomol #SE-237)
# Test: Ki,app, enzyme inhibition assay (fluorogenic peptide substrate), medium-scale sFab
# Remark: another data set of the same source
row,Binder,Ki [nM]
1,B8,> 430
2,B9,> 1000
3,B10,> 1000

# Target: T5, Human MMP-9 catalytic domain (BIOMOL, …)
# Test: as above
# Remark: another data set of the same source
row,Binder,Ki [nM]
1,B8,1.6
2,B9,6.5
3,B10,1.8

# Target: T6, Mouse MMP-9 (R&D, 909-MM), …
# Test: as above
# Remark: another data set of the same source
row,Binder,Ki [nM]
1,B8,24
2,B9,64
3,B10,13
